Measured values published in US20090166224A1.

Experiments:
[1] = target: Alpha-1-acid-glycoprotein in neuraminidase-treated serum (human) (UniProt P02763); experiment: neuraminidized sample on M-LAC column, displacer fraction, peak area of peptide …
[2] = target: Alpha-2HS-glycoprotein in neuraminidase-treated serum (human) (UniProt P02765); experiment: as above
[3] = target: Beta-2-glycoprotein in neuraminidase-treated serum (human) (UniProt P02749); experiment: as above
[4] = target: Haptoglobin in neuraminidase-treated serum (human) (UniProt P00738); experiment: as above
Haptoglobin in neuraminidase-treated serum (human), sequence (P00738 19-406 limits assumed): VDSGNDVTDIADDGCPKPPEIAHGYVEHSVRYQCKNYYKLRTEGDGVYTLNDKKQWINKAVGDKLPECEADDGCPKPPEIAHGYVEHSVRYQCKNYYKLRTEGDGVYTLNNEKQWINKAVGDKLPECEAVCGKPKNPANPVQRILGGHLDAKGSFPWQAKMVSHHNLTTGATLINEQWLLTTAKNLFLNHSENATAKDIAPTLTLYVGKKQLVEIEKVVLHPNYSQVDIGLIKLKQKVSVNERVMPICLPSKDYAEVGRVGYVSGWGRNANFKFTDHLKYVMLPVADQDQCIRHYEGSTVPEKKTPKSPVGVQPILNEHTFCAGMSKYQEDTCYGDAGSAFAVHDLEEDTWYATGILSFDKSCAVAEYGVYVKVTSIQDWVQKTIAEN

[5] = target: asialotransferrin (human) (UniProt P02787); experiment: as above
asialotransferrin (human), sequence (P02787 20-698 limits assumed): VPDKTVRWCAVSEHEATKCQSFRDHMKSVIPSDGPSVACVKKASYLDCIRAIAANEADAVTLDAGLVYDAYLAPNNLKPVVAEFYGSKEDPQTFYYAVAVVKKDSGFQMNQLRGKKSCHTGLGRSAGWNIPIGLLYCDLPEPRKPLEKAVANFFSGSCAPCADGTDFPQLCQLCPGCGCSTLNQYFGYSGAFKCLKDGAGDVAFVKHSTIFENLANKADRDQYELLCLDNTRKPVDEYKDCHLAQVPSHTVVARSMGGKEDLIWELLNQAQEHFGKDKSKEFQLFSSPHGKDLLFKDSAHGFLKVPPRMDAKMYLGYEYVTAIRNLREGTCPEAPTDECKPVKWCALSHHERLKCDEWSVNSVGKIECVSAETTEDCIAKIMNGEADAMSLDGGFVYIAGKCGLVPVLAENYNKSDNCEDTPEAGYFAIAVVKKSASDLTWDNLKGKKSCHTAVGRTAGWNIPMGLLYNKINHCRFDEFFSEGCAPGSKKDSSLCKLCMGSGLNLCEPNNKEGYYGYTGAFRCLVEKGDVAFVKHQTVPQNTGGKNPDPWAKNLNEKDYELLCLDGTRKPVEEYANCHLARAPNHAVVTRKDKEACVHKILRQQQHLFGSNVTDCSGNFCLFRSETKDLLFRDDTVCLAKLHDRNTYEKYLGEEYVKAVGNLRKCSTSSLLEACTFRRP

[6] = target: Inter-alpha-trypsin inhibitor (human); experiment: human serum on M-LAC column, displacer fraction, LC-MS/MS; smaller rank = more abundant
… ZONE PROTEIN (human) [7] = target: … ZONE PROTEIN (human) (UniProt P20742); experiment: as above
… ZONE PROTEIN (human), sequence (P20742 26-1482 limits assumed): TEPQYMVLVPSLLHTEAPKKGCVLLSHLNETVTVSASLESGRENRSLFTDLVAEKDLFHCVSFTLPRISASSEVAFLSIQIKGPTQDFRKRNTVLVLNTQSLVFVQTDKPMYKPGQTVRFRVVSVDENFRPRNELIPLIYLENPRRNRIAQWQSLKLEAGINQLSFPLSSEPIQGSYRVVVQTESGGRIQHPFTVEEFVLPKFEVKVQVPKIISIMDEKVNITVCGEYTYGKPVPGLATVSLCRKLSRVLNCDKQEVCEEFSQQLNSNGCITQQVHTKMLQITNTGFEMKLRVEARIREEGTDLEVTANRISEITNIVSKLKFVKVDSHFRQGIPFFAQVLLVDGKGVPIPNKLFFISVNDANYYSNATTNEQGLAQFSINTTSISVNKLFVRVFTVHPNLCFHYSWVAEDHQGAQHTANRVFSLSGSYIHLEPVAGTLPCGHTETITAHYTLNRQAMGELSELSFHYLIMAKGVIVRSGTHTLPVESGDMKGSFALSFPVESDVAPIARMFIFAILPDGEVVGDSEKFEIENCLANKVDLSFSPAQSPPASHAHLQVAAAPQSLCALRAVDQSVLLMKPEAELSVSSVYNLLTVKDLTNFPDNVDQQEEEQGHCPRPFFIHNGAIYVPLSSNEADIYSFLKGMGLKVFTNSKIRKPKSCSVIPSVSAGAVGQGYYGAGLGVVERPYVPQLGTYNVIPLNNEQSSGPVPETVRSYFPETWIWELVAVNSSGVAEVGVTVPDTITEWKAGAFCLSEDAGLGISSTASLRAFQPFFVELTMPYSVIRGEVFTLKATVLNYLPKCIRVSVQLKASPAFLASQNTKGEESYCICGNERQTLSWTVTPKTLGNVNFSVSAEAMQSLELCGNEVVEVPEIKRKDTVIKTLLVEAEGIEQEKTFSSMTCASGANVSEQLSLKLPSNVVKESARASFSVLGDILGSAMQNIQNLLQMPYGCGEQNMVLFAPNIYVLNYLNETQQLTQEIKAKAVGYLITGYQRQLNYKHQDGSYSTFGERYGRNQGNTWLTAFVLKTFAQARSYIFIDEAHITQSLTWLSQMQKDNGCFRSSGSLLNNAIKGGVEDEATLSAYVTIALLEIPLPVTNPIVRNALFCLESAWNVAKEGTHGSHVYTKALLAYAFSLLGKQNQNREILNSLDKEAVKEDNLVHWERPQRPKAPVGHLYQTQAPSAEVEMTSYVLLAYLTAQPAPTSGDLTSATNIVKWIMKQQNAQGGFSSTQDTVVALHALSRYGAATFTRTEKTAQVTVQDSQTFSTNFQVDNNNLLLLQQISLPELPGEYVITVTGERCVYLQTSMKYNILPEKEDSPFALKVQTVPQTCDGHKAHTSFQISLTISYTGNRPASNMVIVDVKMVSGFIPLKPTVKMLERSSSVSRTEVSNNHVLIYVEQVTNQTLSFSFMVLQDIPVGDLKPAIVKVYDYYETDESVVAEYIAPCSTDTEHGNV

CERULOPLASMIN (human) [8] = target: CERULOPLASMIN (human) (UniProt P00450); experiment: human serum on M-LAC column, displacer fraction, extracted ion chromatogram of peptide …
HAPTOGLOBIN-2 (human) = HAPTOGLOBIN-2 (human) (UniProt P00738); experiment: as above
[9] = target: Inter-alpha-trypsin inhibitor (human); experiment: as above
[10] = target: Inter-alpha-trypsin inhibitor in fucosidase-treated serum (human); experiment: fucosidase-treated serum on M-LAC column, displacer fraction, LC-MS/MS; smaller rank = more abundant
[11] = target: Pregnancy zone protein in fucosidase-treated serum (human) (UniProt P20742); experiment: as above
Pregnancy zone protein in fucosidase-treated serum (human), sequence (P20742 26-1482 limits assumed): as above

[12] = target: Inter-alpha-trypsin inhibitor in fucosidase-treated serum (human); experiment: fucosidase-treated serum on M-LAC column, displacer fraction, extracted ion chromatogram of peptide …
[13] = target: Alpha-2HS-glycoprotein in neuraminidase-treated serum (human) (UniProt P02765); experiment: neuraminidase-treated serum on M-LAC column, displacer fraction, LC-MS/MS; smaller rank = more abundant
[14] = target: Beta-2-glycoprotein in neuraminidase-treated serum (human) (UniProt P02749); experiment: as above
[15] = target: asialotransferrin (human) (UniProt P02787); experiment: as above
[16] = target: Pregnancy zone protein in fucosidase-treated serum (human) (UniProt P20742); experiment: fucosidase-treated serum on M-LAC column, displacer fraction, extracted ion chromatogram of peptide … (so in the source)
[17] = target: APOLIPOPROTEIN A-I (human) (UniProt P02647); experiment: human serum on Con A/WGA/Jacalin column, lectin-specific displacer fraction, LC-MS/MS; grade = SEQUEST rank group (+ = ranks 1-5, ++++ = 16-20)
CERULOPLASMIN (human) [18] = target: CERULOPLASMIN (human) (UniProt P00450); experiment: as above
SERO… (human) = SERO… (human) (UniProt P02787); experiment: as above
… ZONE PROTEIN (human) [19] = target: … ZONE PROTEIN (human) (UniProt P20742); experiment: as above
[20] = target: IG ALPHA-1 CHAIN C REGION (human) (UniProt P01876); experiment: human serum on M-LAC column, Jacalin displacer fraction, LC-MS/MS; smaller rank = more abundant
[21] = target: asialotransferrin (human) (UniProt P02787); experiment: neuraminidase-treated serum on M-LAC column, displacer fraction, extracted ion chromatogram of peptide …
[22] = target: ALPHA-2-HS-GLYCOPROTEIN (human) (UniProt P02765); experiment: human serum on Con A/WGA/Jacalin column, lectin-specific displacer fraction, LC-MS/MS; grade = SEQUEST rank group (+ = ranks 1-5, ++++ = 16-20)
[23] = target: IG ALPHA-1 CHAIN C REGION (human) (UniProt P01876); experiment: as above

Alpha-2HS-glycoprotein in neuraminidase-treated serum (human), sequence (P02765 19-300 limits assumed, chain 1 of 2): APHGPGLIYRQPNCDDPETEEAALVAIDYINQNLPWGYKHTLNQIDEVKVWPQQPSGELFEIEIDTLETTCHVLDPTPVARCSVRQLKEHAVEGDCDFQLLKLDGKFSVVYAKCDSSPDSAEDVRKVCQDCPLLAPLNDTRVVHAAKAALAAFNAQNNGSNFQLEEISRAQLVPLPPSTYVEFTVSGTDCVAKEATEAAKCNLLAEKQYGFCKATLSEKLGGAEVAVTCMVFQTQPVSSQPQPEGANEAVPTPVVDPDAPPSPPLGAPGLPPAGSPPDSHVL
Alpha-2HS-glycoprotein in neuraminidase-treated serum (human), sequence (P02765 341-367 limits assumed, chain 2 of 2): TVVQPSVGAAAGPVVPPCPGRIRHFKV
Alpha-1-acid-glycoprotein in neuraminidase-treated serum (human), sequence (P02763 19-201 limits assumed): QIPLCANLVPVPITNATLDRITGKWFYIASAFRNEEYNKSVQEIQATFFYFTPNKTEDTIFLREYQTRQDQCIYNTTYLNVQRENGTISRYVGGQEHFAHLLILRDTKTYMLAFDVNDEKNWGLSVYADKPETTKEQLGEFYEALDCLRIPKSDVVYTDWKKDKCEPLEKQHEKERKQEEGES
Beta-2-glycoprotein in neuraminidase-treated serum (human), sequence (P02749 20-345 limits assumed): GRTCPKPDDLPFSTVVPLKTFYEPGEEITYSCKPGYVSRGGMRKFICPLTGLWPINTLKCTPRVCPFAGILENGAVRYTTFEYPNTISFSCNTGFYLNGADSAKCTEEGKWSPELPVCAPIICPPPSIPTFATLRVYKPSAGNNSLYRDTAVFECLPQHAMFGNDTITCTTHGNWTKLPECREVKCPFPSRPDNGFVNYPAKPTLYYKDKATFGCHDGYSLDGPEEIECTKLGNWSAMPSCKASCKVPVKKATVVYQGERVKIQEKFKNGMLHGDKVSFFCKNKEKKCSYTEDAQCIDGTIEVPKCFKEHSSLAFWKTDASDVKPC

peptide peak area in displacer fraction [1] | peptide peak area in displacer fraction [2] | peptide peak area in displacer fraction [3] | peptide peak area in displacer fraction [4] | peptide peak area in displacer fraction [5] | peptide peak area in displacer fraction (CERULOPLASMIN (human) [8]) [counts] | Substance | SEQUEST rank in displacer fraction (… ZONE PROTEIN (human) [7]) | SEQUEST rank in displacer fraction [11] | SEQUEST rank in displacer fraction [13] | SEQUEST rank in displacer fraction [14] | SEQUEST rank in displacer fraction [15] | peptide peak area in displacer fraction [16] [counts] | other results
12.3 | 7.4 | 3.8 | 12.6 | 28 | 2e+06 | Jacalin lectin, agarose-bound (from UniProt P18670 1-133; P18671 1-20) | – | – | 7 | 23 | 1 | – | SEQUEST rank in displacer fraction [20]: 1; peptide peak area in displacer fraction ([21]; peptide at M/Z 530.2): 2.4e+07 counts; peptide peak area in displacer fraction ([21]; peptide at M/Z 790.1): 8.3e+06 counts; SEQUEST ranking (relative abundance in the Jacalin displacement fraction) [22]: 6 to 10 rank; SEQUEST ranking (relative abundance in the Jacalin displacement fraction) [23]: 1 to 5 rank; SEQUEST ranking (relative abundance in the Jacalin displacement fraction) (SERO… (human)): 16 to 20 rank
0 | 0.9 | 0 | 163 | 1.6 | 9.1e+06 | wheat germ agglutinin (WGA), agarose-bound (from UniProt P10968 27-197) | 7 | 17 | – | – | – | 5.2e+06 | SEQUEST ranking (relative abundance in the WGA displacement fraction) [22]: 11 to 15 rank; SEQUEST ranking (relative abundance in the WGA displacement fraction) (… ZONE PROTEIN (human) [19]): 6 to 10 rank

Substance | peptide peak area in displacer fraction [1] | peptide peak area in displacer fraction [2] | peptide peak area in displacer fraction [3] | peptide peak area in displacer fraction [4] | peptide peak area in displacer fraction [5] | peptide peak area in displacer fraction (CERULOPLASMIN (human) [8]) [counts] | SEQUEST rank in displacer fraction (… ZONE PROTEIN (human) [7]) | SEQUEST rank in displacer fraction [11] | SEQUEST rank in displacer fraction [13] | SEQUEST rank in displacer fraction [14] | SEQUEST rank in displacer fraction [15] | peptide peak area in displacer fraction [16] [counts] | other results
Concanavalin A (Con A), agarose-bound (from UniProt P02866 30-281) | 10.7 | 2.6 | 8.4 | 46.9 | 36 | 7.8e+06 | 34 | 25 | 31 | 24 | 2 | 1.6e+07 | SEQUEST rank in displacer fraction [6]: 22; peptide peak area in displacer fraction (HAPTOGLOBIN-2 (human)): 4e+07 counts; peptide peak area in displacer fraction [9]: 500000 counts; SEQUEST rank in displacer fraction [10]: 13; peptide peak area in displacer fraction [12]: 0 counts; SEQUEST ranking (relative abundance in the Con A displacement fraction) [17]: 11 to 15 rank; SEQUEST ranking (relative abundance in the Con A displacement fraction) (CERULOPLASMIN (human) [18]): 16 to 20 rank; SEQUEST ranking (relative abundance in the Con A displacement fraction) (SERO… (human)): 1 to 5 rank; SEQUEST ranking (relative abundance in the Con A displacement fraction) (… ZONE PROTEIN (human) [19]): 16 to 20 rank
